In experiment [1] the target is T1, 人CD16a抗原 (ACRO biosystems, 货号CDA-H5220) (human, UniProt P08637 17-208).
T1 construct: Bought protein coated on the ELISA plate at 2 μg/mL; also called 人CD16a蛋白; CD16抗原
The experiment in a line: ELISA, human CD16a coated at 2 μg/mL, HRP rabbit anti-human IgG, OD450.

In experiment [2] the target is T2, 人B7H6 (ACRO biosystems, 货号B76-H52H8) (human, UniProt Q68D85 25-262).
T2 construct: Bought protein coated on the ELISA plate at 2 μg/mL; also called 人B7H6蛋白; B7H6抗原
T2 sequence (looked up): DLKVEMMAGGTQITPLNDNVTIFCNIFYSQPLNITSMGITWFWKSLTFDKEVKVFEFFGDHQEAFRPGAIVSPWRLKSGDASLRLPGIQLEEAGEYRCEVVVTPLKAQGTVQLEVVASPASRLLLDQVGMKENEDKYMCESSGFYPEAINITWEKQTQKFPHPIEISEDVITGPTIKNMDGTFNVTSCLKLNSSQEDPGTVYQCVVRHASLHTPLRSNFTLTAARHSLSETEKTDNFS
Description: ELISA, human B7H6 coated at 2 μg/mL, HRP rabbit anti-human IgG, OD450. (An ELISA detects its analyte on a solid surface through an enzyme-linked reagent.)

T1 sequence (P08637 17-208 limits assumed): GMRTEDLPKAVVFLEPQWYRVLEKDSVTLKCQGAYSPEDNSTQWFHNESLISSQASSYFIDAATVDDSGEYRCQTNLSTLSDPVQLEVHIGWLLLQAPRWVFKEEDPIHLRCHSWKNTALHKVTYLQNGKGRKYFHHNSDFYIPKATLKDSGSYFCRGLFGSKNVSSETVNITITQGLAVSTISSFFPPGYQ

B1: CD16×B7H6重组双特异性抗体 (bispecific antibody, human IgG1, L234A L235A)
chain 1: not shown
chain 2: DIVLTQTPLSLSVTPGQPASISCKASQSVDYDGDSYMNWYLQKPGQPPQLLIYAASTLHSGIPDRFSGSGSGTDFTLKISRVEAEDVGVYYCQQSKEDPRTFGQGTKLEIKGGGGSGGGGSGGGGSEVQLVQSGAEVKKPGASVKVSCKASGYTFTDYNMDWVRQAPGQGLEWIGDINPNNGGTLYNQKFRGRVTLTVDTSISTAYMELSRLRSDDTAVYYCARSEVFYGNYADYWGQGTTVTVSSEPKSCDKTHTCPPCPAPEAAGGPSVFLFPPKPKDTLMISRTPEVTCVVVDVSHEDPEVKFNWYVDGVEVHNAKTKPREEQYNSTYRVVSVLTVLHQDWLNGKEYKCKVSNKALPAPIEKTISKAKGQPREPQVCTLPPSRDELTKNQVSLSCAVKGFYPSDIAVEWESNGQPENNYKTTPPVLDSDGSFFLVSKLTVDKSRWQQGNVFSCSVMHEALHNHYTQKSLSLSPGK
notes: Heterodimer of two scFv-Fc chains (knob-into-hole); Expressed in ExpiCHO-S, purified on protein A; also called NKmab; CD16×B7H6双特异性抗体
Take B1: the binding result in experiment [1] and in experiment [2] was “binds” each time.

(Values after CN114395044A (HEFEN TIANKPORT IMMUNOLOGICAL DRUG CO LTD, dated 2022).)
